B1: PBXIP1 (parent)
chain: LPVETLGPASRMDPESERALQAPH
B2: MYOZ1 (parent)
chain: FSDSSMDHFQKFLPTVGGQLGTAG
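Also: lentivirally expressed fusions sorted by FACS into six bins by GFP to DsRed ratio, PSI derived from sequencing read proportions per bin multiplied by bin number.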

In the first series the parent is B1. Nature of the series: protein stability index of a GFP-peptide fusion (GPS, HEK-293T) (PSI 1-6); higher = more stable. As to conditions: c terminus: a fixed tail appended.
As for LPVEGLGPASRMDPESERALQAPH [T5G], the protein stability index turned out to be 5.33.
In the case of LPVERLGPASRMDPESERALQAPH [T5R], the protein stability index was found to be 4.14.
Turning to LPVEILGPASRMDPESERALQAPH [T5I], the protein stability index turned out to be 4.52.
Regarding LPVECLGPASRMDPESERALQAPH [T5C], the protein stability index is 4.89.
Regarding LPVEELGPASRMDPESERALQAPH [T5E], the protein stability index came to 5.77.
In the case of LPVENLGPASRMDPESERALQAPH [T5N], the protein stability index was 5.12.
With LPVETLGPASRMDPESERAHQAPH [L20H], the protein stability index was 4.27.
As to LPVETLGPASRMDPESERAWQAPH [L20W], the protein stability index worked out at 3.7.
LPVETLGPASRMDPESERAEQAPH [L20E]: the protein stability index amounted to 4.81.
LPVETLGPASRMDPESERAPQAPH [L20P]: the protein stability index was found to be 4.72.
On to LPVETLGPASRMDPESERAQQAPH [L20Q], for which the protein stability index is 4.7.
Regarding LPVETLGPASRQDPESERALQAPH [M12Q], the protein stability index was 4.89.
With LPVETLGPASRNDPESERALQAPH [M12N], the protein stability index was 4.41.
For the variant LPVETLGPASRLDPESERALQAPH [M12L], the protein stability index came to 4.04.
For the variant LPVETLGPASRFDPESERALQAPH [M12F], the protein stability index came to 4.15.
Regarding LPVETLGPASRVDPESERALQAPH [M12V], the protein stability index turned out to be 4.34.
Same read-out and setting: then LPVETLGPASRMDPESETALQAPH [R18T], with 4.82.
On to LPVETLGPASRMDPESEVALQAPH [R18V], for which the protein stability index was 4.45.
On to LPVETLGPASRMDPESTRALQAPH [E17T], for which the protein stability index was 4.23.
On the same count and under the same terms, the result for LPVETLGPASRMDPESWRALQAPH [E17W] reads 3.4; that for LPVETLGPASRMDPESSRALQAPH [E17S], 4.56; that for LPVETLGPASRMDPESHRALQAPH [E17H], 3.92.
The same measure, in the same setting: the result for LPVETLGPASRMDPESPRALQAPH [E17P] reads 4.18; that for LPVETLGPASRMDPESKRALQAPH [E17K], 4.19; that for LPVETLGPASRMDPESQRALQAPH [E17Q], 4.06.
With LPVETLGPASRMDPESDRALQAPH [E17D], the protein stability index is 3.97.
Still for that read-out and setting: the result for LPVETLGPASRMDPESNRALQAPH [E17N] reads 4.29.
As for LPSETLGPASRMDPESERALQAPH [V3S], the protein stability index was 4.83.
Still for that read-out and setting: the result for LPDETLGPASRMDPESERALQAPH [V3D] reads 5.5.
The same measure, in the same setting: then LPIETLGPASRMDPESERALQAPH [V3I], with 4.92; and LPMETLGPASRMDPESERALQAPH [V3M], with 4.74.
Same read-out and setting: the result for LPRETLGPASRMDPESERALQAPH [V3R] reads 4.27.
As to LPWETLGPASRMDPESERALQAPH [V3W], the protein stability index amounted to 4.55.
In the case of LPVETLGPASRMDPESERALQAPS [H24S], the protein stability index turned out to be 4.75.
In the case of LPVETLGPASRMDPESERALQAPF [H24F], the protein stability index is 4.21.
As to LPVETLGPASRMDPESERALQAPW [H24W], the protein stability index worked out at 4.07.
Take LPVETLGPASRMDPESERALQAPN [H24N]: the protein stability index amounted to 4.61.
For LPVETLGPASRMDPESERALQAPR [H24R], the protein stability index came out at 4.16.
For LPVETLGPASRMDPESERALQAPQ [H24Q], the protein stability index was determined as 4.31.
With LPVETLGPASRMDPESERALQAPY [H24Y], the protein stability index is 4.07.

The next series covers variants of B2. The description is as above. As to conditions: c terminus: a fixed tail appended.
In the case of CSDSSMDHFQKFLPTVGGQLGTAG [F1C], the protein stability index came to 2.26.
Regarding ESDSSMDHFQKFLPTVGGQLGTAG [F1E], the protein stability index worked out at 3.38.
On the same count and under the same terms, then PSDSSMDHFQKFLPTVGGQLGTAG [F1P], with 3.6.
For LSDSSMDHFQKFLPTVGGQLGTAG [F1L], the protein stability index was 3.11.
Consider SSDSSMDHFQKFLPTVGGQLGTAG [F1S], for which the protein stability index turned out to be 4.12.
Turning to HSDSSMDHFQKFLPTVGGQLGTAG [F1H], the protein stability index is 3.88.
For the variant ASDSSMDHFQKFLPTVGGQLGTAG [F1A], the protein stability index worked out at 3.62.
The same measure, in the same setting: then NSDSSMDHFQKFLPTVGGQLGTAG [F1N], with 3.23; and VSDSSMDHFQKFLPTVGGQLGTAG [F1V], with 3.56.
With YSDSSMDHFQKFLPTVGGQLGTAG [F1Y], the protein stability index was 2.83.
Consider WSDSSMDHFQKFLPTVGGQLGTAG [F1W], for which the protein stability index turned out to be 2.56.
As to GSDSSMDHFQKFLPTVGGQLGTAG [F1G], the protein stability index amounted to 2.41.
Take TSDSSMDHFQKFLPTVGGQLGTAG [F1T]: the protein stability index worked out at 3.51.
Turning to MSDSSMDHFQKFLPTVGGQLGTAG [F1M], the protein stability index came to 3.7.
As for ISDSSMDHFQKFLPTVGGQLGTAG [F1I], the protein stability index is 2.92.
As to RSDSSMDHFQKFLPTVGGQLGTAG [F1R], the protein stability index is 3.41.
On the same count and under the same terms, the result for KSDSSMDHFQKFLPTVGGQLGTAG [F1K] reads 3.77; that for FSDDSMDHFQKFLPTVGGQLGTAG [S4D], 2.15; that for FSDCSMDHFQKFLPTVGGQLGTAG [S4C], 1.43.
For the variant FSDASMDHFQKFLPTVGGQLGTAG [S4A], the protein stability index was found to be 2.09.
As to FSDESMDHFQKFLPTVGGQLGTAG [S4E], the protein stability index stood at 2.94.
Same read-out and setting: then FSDFSMDHFQKFLPTVGGQLGTAG [S4F], with 2.87; and FSMSSMDHFQKFLPTVGGQLGTAG [D3M], with 1.45.
With FSHSSMDHFQKFLPTVGGQLGTAG [D3H], the protein stability index was 1.88.
Turning to FSTSSMDHFQKFLPTVGGQLGTAG [D3T], the protein stability index was determined as 1.96.
FSQSSMDHFQKFLPTVGGQLGTAG [D3Q]: the protein stability index was 2.27.
Take FSISSMDHFQKFLPTVGGQLGTAG [D3I]: the protein stability index was 1.89.
Same read-out and setting: then FSESSMDHFQKFLPTVGGQLGTAG [D3E], with 3.06; and FSKSSMDHFQKFLPTVGGQLGTAG [D3K], with 1.63; and FSSSSMDHFQKFLPTVGGQLGTAG [D3S], with 1.97.
As to FSVSSMDHFQKFLPTVGGQLGTAG [D3V], the protein stability index came to 1.96.
As for FSPSSMDHFQKFLPTVGGQLGTAG [D3P], the protein stability index was 1.56.
For FSFSSMDHFQKFLPTVGGQLGTAG [D3F], the protein stability index turned out to be 1.94.
The same measure, in the same setting: the result for FSYSSMDHFQKFLPTVGGQLGTAG [D3Y] reads 2.02; that for FSASSMDHFQKFLPTVGGQLGTAG [D3A], 1.96; that for FSWSSMDHFQKFLPTVGGQLGTAG [D3W], 2.06.
FSLSSMDHFQKFLPTVGGQLGTAG [D3L]: the protein stability index came out at 1.55.
Consider FSNSSMDHFQKFLPTVGGQLGTAG [D3N], for which the protein stability index is 1.67.
Take FSRSSMDHFQKFLPTVGGQLGTAG [D3R]: the protein stability index was found to be 1.49.
Consider FADSSMDHFQKFLPTVGGQLGTAG [S2A], for which the protein stability index was found to be 1.77.
As to FGDSSMDHFQKFLPTVGGQLGTAG [S2G], the protein stability index is 2.9.
On the same count and under the same terms, the result for FYDSSMDHFQKFLPTVGGQLGTAG [S2Y] reads 1.83.
On to FQDSSMDHFQKFLPTVGGQLGTAG [S2Q], for which the protein stability index worked out at 2.59.
As for FRDSSMDHFQKFLPTVGGQLGTAG [S2R], the protein stability index amounted to 1.94.
With FMDSSMDHFQKFLPTVGGQLGTAG [S2M], the protein stability index amounted to 2.63.
As for FDDSSMDHFQKFLPTVGGQLGTAG [S2D], the protein stability index was found to be 2.95.
For FCDSSMDHFQKFLPTVGGQLGTAG [S2C], the protein stability index stood at 1.5.
Still for that read-out and setting: then FIDSSMDHFQKFLPTVGGQLGTAG [S2I], with 1.92.
As for FLDSSMDHFQKFLPTVGGQLGTAG [S2L], the protein stability index is 3.52.
For FHDSSMDHFQKFLPTVGGQLGTAG [S2H], the protein stability index is 1.5.
Consider FPDSSMDHFQKFLPTVGGQLGTAG [S2P], for which the protein stability index turned out to be 2.54.
Regarding FFDSSMDHFQKFLPTVGGQLGTAG [S2F], the protein stability index is 1.62.
With FEDSSMDHFQKFLPTVGGQLGTAG [S2E], the protein stability index stood at 2.81.
For the variant FNDSSMDHFQKFLPTVGGQLGTAG [S2N], the protein stability index came to 2.23.
